Experimental data taken from patent publication US20250171549A1 (Amgen, published 2025).
Where no end group is shown, it is not given here.

T1: Peptide 1 (biotinylated N-terminus CCR8 peptide, amino acids 1-12) (human, also: biotinylated, position not given here)
T1 construct: Captured on streptavidin polystyrene beads
T1 peptide: MDYTLDLSVTTV

T2: Peptide 3 (biotinylated N-terminus CCR8 peptide, amino acids 13-24) (human, also: biotinylated, position not given here)
T2 construct: Captured on streptavidin polystyrene beads
T2 peptide: TDYYYPDIFSSP


Legend:
[1] = molecular target: T1, Peptide 1 (biotinylated N-terminus CCR8 …); experiment: flow cytometry, biotinylated peptide on streptavidin beads
Description: (§1) The biotinylated human CCR8 peptides were captured on streptavidin polystyrene beads (Spherotech) in FACS buffer (PBS+2% Fetal Bovine Serum) at a final protein concentration of 50-100 ng/ml and incubated for 30 minutes at room temperature. Beads were washed twice with FACS buffer to remove unbound protein, centrifuged to pellet the beads, and resuspended and pooled together in StabilGuard (SurModics). The pooled biotinylated human CCR8 coated beads were added to hybridoma supernatant samples in a 96-well plate, such that the final antibody concentration was 5.0 μg/mL, and then incubated for one hour at room temperature.
(§2) Plates were washed twice with FACS buffer, centrifuged to pellet the beads, and supernatant was removed and resuspended in FACS buffer to remove unbound antibodies. Alexa Fluor 488 goat anti-human or rat IgG (Fcγ fragment specific) secondary antibodies (Jackson ImmunoResearch) made up in FACS buffer at 5.0 μg/mL were added to each well, resuspended with beads and incubated for 15 minutes at room temperature. Plates were washed twice with FACS buffer, centrifuged to pellet the beads, and supernatant was removed and resuspended in FACS buffer to remove unbound secondary antibodies. Samples were then resuspended in FACS buffer and read on either IntelliCyt® iQue Flow Cytometer.
(§3) Data are represented as a ratio of geometric mean binding to beads coated with specific peptide divided by geometric mean of binding to a bead coated with a negative control peptide (peptide with unrelated sequence). A value above two represents presence of binding.

human CCR8 = molecular target: T3, human CCR8 (human, UniProt P51685 1-355); experiment: KinExA, HUT78 cells
T3 construct: Transiently expressed on HEK 293T cells, or endogenous on HuT78/HUT78 cells and primary human regulatory T cells; also called hCCR8; human C-C chemokine receptor type 8
Description: The cells were counted using a hemocytometer. The HUT78 cells were titrated and incubated with two different constant antibody concentrations, one at 48 pM and the other at 2 nM, in HUT media (RPMI 1640, 10% FBS, 10 mM HEPES, 2 mM L-Glut, 1 mM Sod. Pyr, 0.1 mM NEAA, 50 uM 2-ME) with 0.05% Sodium Azide. For the high [Ab] equilibrium set, HUT78 cells were titrated from 62.5 million per milliliter concentration 1:2 for 10 points in eppendorf tubes and equilibrated with 2 nM antibody in a total volume of 400 μl. For the low [Ab] equilibrium set, HUT78 cells were titrated from 3.89 million per milliliter concentration, 1:2 for 10 points in 50 ml Fulcon tubes and equilibrated with 48 pM antibody in a total volume of 15.5 mL.
(§4) For each equilibrium sample the free [Ab] was detected by running the equilibrium samples through the coated beads followed by a quick wash with the running buffer (1×PBS pH7.4+1% BSA+0.05% Sodium Azide). The secondary detection antibody (goat anti-huIgG (H+L) Alexa 647) was run through the flow cell at 680 ng/ml and 500 μL per run. The KinExA voltage output signal was used in KinExA software to calculate the Kd. […]
Cells in media were serially diluted and incubated with 48 pM or 2 nM active binding site concentration of antibody in media in the presence of 0.05% NaN3, and allowed to equilibrate. The free mAb left in the supernatant was measured as described above. […]

[2] = molecular target: T2, Peptide 3 (biotinylated N-terminus CCR8 …); experiment: flow cytometry, biotinylated peptide on streptavidin beads, antibody 5 ug/mL
Description: as §1
as §2, with “Cytometer. […]” for “Cytometer.”

[3] = molecular target: T2, Peptide 3 (biotinylated N-terminus CCR8 …); experiment: flow cytometry, biotinylated peptide on streptavidin beads
Description: as §1, §2, §3

[4] = molecular target: T1, Peptide 1 (biotinylated N-terminus CCR8 …); experiment: flow cytometry, biotinylated peptide on streptavidin beads, antibody 5 ug/mL
Description: as §1
as §2, with “Cytometer. […]” for “Cytometer.”

[5] = molecular target: T4, cynomolgus monkey CCR8 (comprising threonine at position four) (cynomolgus monkey, UniProt O97665 1-356 (rhesus entry)); experiment: KinExA, 293T cells expressing cynomolgus CCR8
T4 construct: also called Cyno CCR8; cynomolgus CCR8
Description: For each equilibrium set, reference point controls included a sample with cell media only and a sample without cells. The equilibrium sets were incubated for 24 hours at room temperature, with shaking. After 24 hours of incubation, the supernatants were separated from the cell pellets via centrifugation at 500×g for five minutes. The supernatants of both high [Ab] and low [Ab] equilibrium sets were then run through a KinExA 3200 machine.
Each equilibrium sample set was read in duplicate on the KinExA machine. For low [Ab] equilibrium samples, 6.8 mL and 4.6 mL of each sample were run in duplicate, respectively, for human and cyno CCR8 equilibrium experiments. For high [Ab] equilibrium samples 16 μL and 75 μL of each sample were run in duplicate, respectively for human and cyno CCR8 equilibrium experiments.
as §4

T3 sequence (P51685 whole entry): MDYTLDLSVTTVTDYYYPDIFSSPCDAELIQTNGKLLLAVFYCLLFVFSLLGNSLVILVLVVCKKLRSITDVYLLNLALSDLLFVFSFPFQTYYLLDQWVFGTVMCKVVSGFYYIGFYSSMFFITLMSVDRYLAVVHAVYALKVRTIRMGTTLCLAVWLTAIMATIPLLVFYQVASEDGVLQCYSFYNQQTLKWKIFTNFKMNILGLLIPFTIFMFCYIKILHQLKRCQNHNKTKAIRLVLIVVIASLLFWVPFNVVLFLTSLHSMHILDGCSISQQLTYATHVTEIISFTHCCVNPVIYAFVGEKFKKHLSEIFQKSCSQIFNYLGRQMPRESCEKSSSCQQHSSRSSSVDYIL
T4 sequence (O97665 other isoform, or with tags, fused parts or gaps): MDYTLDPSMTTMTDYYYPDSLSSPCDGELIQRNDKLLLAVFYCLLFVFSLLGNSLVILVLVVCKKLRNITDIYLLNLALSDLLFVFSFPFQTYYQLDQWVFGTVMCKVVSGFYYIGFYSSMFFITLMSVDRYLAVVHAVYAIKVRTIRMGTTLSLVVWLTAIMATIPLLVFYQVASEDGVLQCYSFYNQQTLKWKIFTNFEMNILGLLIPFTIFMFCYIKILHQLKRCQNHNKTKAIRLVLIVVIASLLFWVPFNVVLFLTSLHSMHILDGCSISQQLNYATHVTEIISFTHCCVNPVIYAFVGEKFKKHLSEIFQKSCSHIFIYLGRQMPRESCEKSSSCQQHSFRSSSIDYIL

| binding result [1] | Kd (human CCR8) [nM] | ratio of geometric mean, peptide bead / negative control peptide bead [2] | binding result [3] | ratio of geometric mean, peptide bead / negative control peptide bead [4] | Kd [5] [nM] | Binder |
| --- | --- | --- | --- | --- | --- | --- |
| no binding | > 5 | 157 |  |  |  | Antibody 2 IgG2 (antibody, V domains shown, IgG2; tested as hybridoma supernatant) VH: QVQLVESGGGVVQPGRSLRLSCAASGFTFSNYGMHWVRQAPGKGLEWVAVISYDGSNKFYADSVKGRFTISRDNSKKTLYLQMSSLRVEDTAVYYCARAGGIGRFDYWGQGTLVTVSS VL: DFVMTQTPLSLSVTPGQPASISCKYSQSLLHSDGKTYLFWYLQKPGQPPHLLIYEVSNRFSGVPDRFSGSGSGTDFTLKISRVEAEDVGLYYCMQTLKLPLTFGGGTKVEINR |
|  | 0.216 |  | no binding | 3 | 0.229 | Antibody 1 IgG2 (antibody, IgG2; tested as hybridoma supernatant) heavy: EVQLVESGGGLVKPGGSLRLSCAASGFTFSNARMGWVRQAPGKGLEWVGRIKSKTEGGTRDYAAPVKGRFTISRDDSKNTLYLQMNSLKTEDTAVYYCTSYSGVWGQGTMVTVSSASTKGPSVFPLAPCSRSTSESTAALGCLVKDYFPEPVTVSWNSGALTSGVHTFPAVLQSSGLYSLSSVVTVPSSNFGTQTYTCNVDHKPSNTKVDKTVERKCCVECPPCPAPPVAGPSVFLFPPKPKDTLMISRTPEVTCVVVDVSHEDPEVQFNWYVDGVEVHNAKTKPREEQFNSTFRVVSVLTVVHQDWLNGKEYKCKVSNKGLPAPIEKTISKTKGQPREPQVYTLPPSREEMTKNQVSLTCLVKGFYPSDIAVEWESNGQPENNYKTTPPMLDSDGSFFLYSKLTVDKSRWQQGNVFSCSVMHEALHNHYTQKSLSLSPGK light: not shown |
